Assay results reported in patent US20210253725A1 (BIONTECH, published 2021).

T1: CD27 expressed on the cell surface (HT1080_CD27 cells) (human, UniProt P26842 20-260)
T1 sequence (looked up): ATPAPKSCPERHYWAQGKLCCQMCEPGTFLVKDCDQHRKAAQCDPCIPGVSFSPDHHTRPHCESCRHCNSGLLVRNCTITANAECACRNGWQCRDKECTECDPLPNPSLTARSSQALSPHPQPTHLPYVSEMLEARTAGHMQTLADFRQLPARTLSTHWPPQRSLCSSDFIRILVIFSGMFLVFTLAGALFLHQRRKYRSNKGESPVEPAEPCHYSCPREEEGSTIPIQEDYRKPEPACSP

T2: CD27 protein (His-tagged, Sino Biological Inc. 10039-H08B1) (human, UniProt P26842 20-192)
T2 construct: bought; coated onto ELISA plates; also called human CD27; recombinant protein; not shown: His tag
T2 sequence (looked up): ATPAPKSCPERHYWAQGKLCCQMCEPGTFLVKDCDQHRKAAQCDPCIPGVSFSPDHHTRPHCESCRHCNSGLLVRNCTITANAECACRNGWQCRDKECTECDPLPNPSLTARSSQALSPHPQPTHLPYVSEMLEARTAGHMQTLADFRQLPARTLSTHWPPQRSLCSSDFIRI


Assays:
[1] = biological target: T1, CD27 expressed on the cell surface …; assay: cell-based or functional assay
[2] = biological target: T2, CD27 protein (His-tagged, Sino …); assay: ELISA on coated His-tagged CD27
[3] = biological target: T1, CD27 expressed on the cell surface …; assay: cellular binding assay, HT1080_CD27 cells
Further: test concentration or dose not given here.

IL-8, cross-linked by F(ab')2 fragment [abs. corr.] [1] [abs. corr.]	IL-8 [abs. corr.] [1] [abs. corr.]	ELISA [abs. corr.] [2] [abs. corr.]	Cellular binding assay [RFU] [3] [RFU]	Binder
2.29	0.339	3.15	280	P018.S.10.A.E04 (antibody, V domains shown, V regions on human Ig constant parts; also called AB27_177) VH: QSLEESGGDLVKPGASLTLTCTASGFSFSSSYWICWVRQAPGKGLEWVACISAPGSGSTFDASWAKGRFTISKTSSTTVTLQMTSLTAADTATYFCARFYAGGSGDYFDLWGPGTLVTVSS VL: QIVMTQTPSSTSEPVGGTVSIKCQASQNIGSYLAWYQQKPGQPPKVLIYTTSDLASGVPSRFKGSGSGTQFTLTISDLESDDAATYYCLGVYGYSSDDVAFGGGTEVVVK
1.54	0.263	3.16	360	P018.S.09.A.A03 (antibody, V domains shown, V regions on human Ig constant parts; also called AB27_144) VH: QEQLVESGGGLVQPEGSLTLTCTASGFSFSSSYYMCWVRQAPGKGPEWIACIYTYSGDTDYANWAKGRFTISKTSSTTVTLQMTSLTAADTATYFCAKAGYGGYGYPIFNLWGPGTLVTVSS VL: AFELTQTPSSVEAAVGGTVTIKCQASQSIGSSLAWYQQKPGQRPKLLMYYVSTLASGVSSRFKGSGSGTEFTLTISDLESADAATYYCQSYYGSGTTVFWAFGGGTEVVVK
1.03	0.7	3.17	326	P018.S.06.A.F06 (antibody, V domains shown, V regions on human Ig constant parts; also called AB27_110) VH: QSVEESGGRLVTPGTPLTLTCAASGFSLNSYVMSWVRQAPGKGLEWIGYIDYGGAPYYASWAKGRFTISKTSTTVELKITSPTIEDTGTYFCARGGYGGYVLVTALWGPGTLVTVSS VL: DIVMTQTPASVSEPVGGTVTIKCQASENIYSYLAWYQQKPGQPPKLLIYQASTLASGVSSRFKGSGSGTQFTLTISDLESADAATYYCQTYYGGSTYGNGFGGGTEVVVE
1.09	0.588	3.15	289	P018.S.03.A.H03 (antibody, V domains shown, V regions on human Ig constant parts; also called AB27_61) VH: QSLEESGGDLVKPEGSLTLTCTASGLDFSSSYWICWVRQAPGKGLEWIACIHAGSSGTTHYATWAKGRFTISKTSSTTVTLQMTSLTAADTATYFCARGAVYGGGSYDNFNLWGPGTLVTVSS VL: AYDMTQTPASVEVAVGGTVTIKCQASQSIGTYLSWYQQKPGQPPKLLIYAASTLASGVQPRFKGSGSGTQFTLTISGVQSDDAATYYCQQGYSADNVANSFGGGTEVVVK
1.13	0.272	3.14	269	P018.S.06.A.C03 (antibody, V domains shown, V regions on human Ig constant parts; also called AB27_101) VH: QSLEESGGGLFQPGGSLTLTCKASGLDFSTNYYMCWVRQAPGKGLELIACISTSSGNTWYASWAKGRFTISKTSSTTVTLQMTSLTAADTATYFCARCDIVYVGYGYASRLDLWGQGTLVTVSS VL: AQVLTQTPSPVSAAVGGTVTINCQASESVYNNNNLAWYQQKPGQPPKFLIYGASSLASGVPSRFKGSGSGTQFTLTISDLESDDAATYYCAGGGSTSVGAFGGGTEVVVK
1.1	0.089	3.14	273	P018.S.01.A.D05 (antibody, V domains shown, V regions on human Ig constant parts; also called AB27_13) VH: QSLEESGGRLVTPGTPLTLTCTASGFSLSSYYMSWVRQAPGKGLEYIGGIYTGGSAYYASWARGRFTISRTSTTVDLKMTSLTIEDTATYFCARDAGDRIYTTFNLWGPGTLVTVSS VL: ALVMTQTPASVSEPVGGTVSLKCQASQSIGSDLSWYQQKSGQPPKLLIYRASKLASGVPSRFKGSGSGTEFTLTISGVQSDDAATYYCLGIDSYSSDDGIAFGGGTEVVVK

More lines, now with the values behind:

Binder	IL-8, cross-linked by F(ab')2 fragment [abs. corr.] [1] [abs. corr.]	IL-8 [abs. corr.] [1] [abs. corr.]	ELISA [abs. corr.] [2] [abs. corr.]	Cellular binding assay [RFU] [3] [RFU]
P018.S.03.A.F03 (antibody, V domains shown, V regions on human Ig constant parts; also called AB27_54) VH: QSLEESGGRLVTPGGSLTLTCTVSGIDLSSYAMGWVRQAPGKGLEYLGIIYTSNRTHYATWAKGRFTISKTSSTTVDLKATSLTTEDTATYFCGRYGRGSGGYYYGMDLWGPGTLVTVSS VL: DIVMTQTPASVEAAVGGTVTIKCQASQSGDDYCSWYQQKPGQRPKLLIYAASTLASGVPSRFRGSRSGTEYTLTISDLESADAATYYCQNYCAGSGVCLGVAFGGGTEVVVK	1.35	0.106	3.15	223
P018.S.01.A.A05 (antibody, V domains shown, V regions on human Ig constant parts; also called AB27_2) VH: QEQLEESGGDRVQPEGSLTLTCTASGFSFSATYWICWVRQAPGKGLEWIACIFGRSSSDTYYASWAKGRFTISKTSSTTVTLQMTSLTAADTATYFCARGDSGHPYYYSFNLWGPGTLVTVSS VL: AYDMTQTPASVEVAVGGTVTIKCQASQSIGGYLAWYQQKPGQPPKLLIYGASTLASGVPSRFRGSGSGTEFTLTISDLDSADAATYYCQCTHGTRSDWAFGGGTEVVVK	1.09	0.328	3.15	300
P018.S.03.A.H02 (antibody, V domains shown, V regions on human Ig constant parts; also called AB27_60) VH: QSLEESGGRLMTPGGSLTLTCTVSGFSLSDYNMQWVRQAPGEGLEWIGIISLGGTTDYANWVKGRFTISKTSTTVDLKMTSLTASDTATYFCARDPAGGNWAELDLWGQGTLVTVSS VL: DIVMTQTPASVSEPVGGTVTIKCQASQSISSWLSWFQQKPGQPPKLLIYDASTLASGVPSRFKGSGSGTEFTLTISDLESADAATYYCQQGSTISNVDNAFGGGTEVVVK	1.07	0.13	3.15	395
P018.S.04.A.C05 (antibody, V domains shown, V regions on human Ig constant parts; also called AB27_70) VH: QSVEESGGRLVTPGTPLTLTCTVSGFSLNYYSMAWVRQVPGEGLEWIGTINTGGGTYYASWAKGRFTISKTSTTVDLKMTSLTAADTATYFCARSDGTGITYYNLWGQGALVTVSS VL: ALVMTQTASPVSAAVGGTVTINCQASETIYSNLAWYQQKQGQPPKLLIYRASNLASGVPSRFSGSESGTQFTLTISGVQSDDAATYYCQGYYNTGITGFGGGTEVVVK	1.43	0.382	3.17	292
P018.S.06.A.F03 (antibody, V domains shown, V regions on human Ig constant parts; also called AB27_108) VH: QSLEESGGDLVRPGASLTLTCTASGLSFSDRYWISWVRQAPGKGLEWIASIYTGSDGVADYATWAKGRVTISKTSSTTVTLQMTSLTAADTATYFCARDREYGSNTGVYSLWGPGTLVTVSS VL: DVLMTQTPSSVSPAVGGTVTIKCQASQNIYSNLAWYQQKPGQRPKLLVYDASNLEYGVPSRFKGSGSGTEYTLTISDLESADAANYYCQCTYYGNNYITFGGGTEVVVR	1.08	0.063	3.16	304
P018.S.01.A.G06 (antibody, V domains shown, V regions on human Ig constant parts; also called AB27_24) VH: QSLEESGGGLFKPTDTLTLTCTVSGIDLSRYAMGWVRQAPGKGLEYIGIISVGGGTYYANWIKGRFTISSTSTTVDLKITSPTTEDTATYFCARSPYASTSASAFNLWGPGTLVTVSS VL: AFELTQTPSSVEAAVGGTVTIKCQASQSIYSYLSWYQQKPGQPPKLLIYEASKLASGVPSRFSGSGSGTQFTLTISDLESADAATYYCQSYSNTNTNTFGGGTEVVVK	1.09	0.491	3.17	313
P018.S.10.A.C05 (antibody, V domains shown, V regions on human Ig constant parts; also called AB27_173) VH: QSVEETGGRLVTPGTPLTLTCAASGVSLSGYYAMSWVRQAPGKGLEWIGYLDATGSTYYASWVKGRFIISRPSTTVDLQITSPTIEDTATYFCARGSYDGVGYNWGLWGQGTLVTVSS VL: DIVMTQTPASVSEPVGGTVTIKCQASESIYNGLAWYQQKPGQPPKRLIYGASTLTSGVPSRFKGSGSGTEFTLTISDLESDDAATYYCQSNYGSGSRSNYIFGGGTEVVVK	2.1	0.206	3.14	11
P018.S.04.A.E02 (antibody, V domains shown, V regions on human Ig constant parts; also called AB27_74) VH: QSVEESGGRLVTPGTPLTLTCTVSGFSLNNYDMNWVRQAPGKGLEWVGYIDTGGSAYYASWVNGRFTISKTSTTVELKMTSLTASDTATYFCARGYTHGYLWGQGTLVTVSS VL: ALVMTQTPSSVSAAVGGTVTINCQASQNVYNNLAWYQQKPGQPPKLLIDSASTLASGVSSRFKGSGSGTEFTLTISDLESADAATYYCQSADWESSNFFWAFGGGTEVVVK	1.91	0.676	3.52	463
P018.S.08.A.A01 (antibody, V domains shown, V regions on human Ig constant parts; also called AB27_135) VH: QSVEESGGRLVTPGTPLTLTCTVSGFSLNNYDMNWVRQAPGKGLEWVGYIDTGGSAYYANWVNGRFTISKTSTTVELKMTSLTASDTATYFCARGYIHGYLWGQGTLVTVSS VL: ALVMTQTPSSVSAAVGGTVTINCQASQNVYNNLAWYQQRPGQPPELLIDSASTLASGVSSRFKGSGSGTEFTLTISDLESADAATYYCQSADWESSNFFWAFGGGTEVVVK	1.57	0.876	3.42	448
P018.S.06.A.E04 (antibody, V domains shown, V regions on human Ig constant parts; also called AB27_106) VH: QEQLEESGGDLVQPEGSLTLTCTVSGFSFDSNYWICWVRQAPGKGPEWIACIMTGDGSIYYATWAKGRFTISKTSSTTVTLQMTSLTAADTATYFCARGYDGIHGGDNYGHVFNLWGPGTLVTVSS VL: AFELTQTPFSVSAVVGGTVTINCQASENIYTLLAWYQQKSGQPPKLLIYRASTLTSGVPSRFKGSGSGTQFTLTISDLESADAATYYCQGYYVDSGNTFGGGTEVVVK	1.22	0.327	3.16	281
